The results in this text go back to patent US20140335120A1.

The target in assay [1] is PSA65-74 peptide presented by H-2Db (PSA65-74 H-2Db tetramer; EL4 cells pulsed with H-2Db peptide) (human) (UniProt P07288). The assay is described as follows: PSA tetramer staining of splenocytes on day 6 after the boost, flow cytometry. Background: In flow cytometry, cells or beads pass a laser one at a time.
Assay [2] has the same target.

For the substance “splenocytes (PSA-specific CD8+ T cells / CTLs) of C57BL/6 mice immunized with LmddA-LLO-PSA”, in assay [1], the percent PSA tetramer+CD8+CD62Llow cells stood at 23%.

“splenocytes (PSA-specific CD8+ T cells / CTLs) of C57BL/6 mice immunized with LmddA-LLO-PSA (cells without a defined receptor)”: the percentage of CD8+CD62Llow IFN-γ secreting cells (intracellular cytokine staining after 5 h stimulation with PSA peptide) in assay [2] was 200 fold.
